Reference: patent US20240018502A1

Biological target: human complement protein C3 (human) (UniProt P01024)
Test: cell-based or functional assay

Sequence of human complement protein C3 (human) (P01024 23-667, chain 1 of 2): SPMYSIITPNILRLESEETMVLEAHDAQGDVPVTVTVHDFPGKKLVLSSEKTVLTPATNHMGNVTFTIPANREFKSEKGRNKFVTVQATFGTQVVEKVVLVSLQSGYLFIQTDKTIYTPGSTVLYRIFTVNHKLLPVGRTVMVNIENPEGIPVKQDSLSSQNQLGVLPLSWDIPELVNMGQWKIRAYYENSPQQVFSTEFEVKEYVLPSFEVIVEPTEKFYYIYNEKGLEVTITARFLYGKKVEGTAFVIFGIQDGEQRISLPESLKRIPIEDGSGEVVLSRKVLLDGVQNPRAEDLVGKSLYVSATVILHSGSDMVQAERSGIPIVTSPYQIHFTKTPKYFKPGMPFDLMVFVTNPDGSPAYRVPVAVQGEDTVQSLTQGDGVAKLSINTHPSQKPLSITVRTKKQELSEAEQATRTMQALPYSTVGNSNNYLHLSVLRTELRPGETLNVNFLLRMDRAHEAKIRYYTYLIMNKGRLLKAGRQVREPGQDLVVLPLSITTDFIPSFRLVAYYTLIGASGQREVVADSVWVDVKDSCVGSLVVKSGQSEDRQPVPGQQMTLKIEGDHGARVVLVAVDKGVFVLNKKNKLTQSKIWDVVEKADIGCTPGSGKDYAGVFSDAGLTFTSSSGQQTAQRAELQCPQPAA
Sequence of human complement protein C3 (human) (P01024 672-1663, chain 2 of 2): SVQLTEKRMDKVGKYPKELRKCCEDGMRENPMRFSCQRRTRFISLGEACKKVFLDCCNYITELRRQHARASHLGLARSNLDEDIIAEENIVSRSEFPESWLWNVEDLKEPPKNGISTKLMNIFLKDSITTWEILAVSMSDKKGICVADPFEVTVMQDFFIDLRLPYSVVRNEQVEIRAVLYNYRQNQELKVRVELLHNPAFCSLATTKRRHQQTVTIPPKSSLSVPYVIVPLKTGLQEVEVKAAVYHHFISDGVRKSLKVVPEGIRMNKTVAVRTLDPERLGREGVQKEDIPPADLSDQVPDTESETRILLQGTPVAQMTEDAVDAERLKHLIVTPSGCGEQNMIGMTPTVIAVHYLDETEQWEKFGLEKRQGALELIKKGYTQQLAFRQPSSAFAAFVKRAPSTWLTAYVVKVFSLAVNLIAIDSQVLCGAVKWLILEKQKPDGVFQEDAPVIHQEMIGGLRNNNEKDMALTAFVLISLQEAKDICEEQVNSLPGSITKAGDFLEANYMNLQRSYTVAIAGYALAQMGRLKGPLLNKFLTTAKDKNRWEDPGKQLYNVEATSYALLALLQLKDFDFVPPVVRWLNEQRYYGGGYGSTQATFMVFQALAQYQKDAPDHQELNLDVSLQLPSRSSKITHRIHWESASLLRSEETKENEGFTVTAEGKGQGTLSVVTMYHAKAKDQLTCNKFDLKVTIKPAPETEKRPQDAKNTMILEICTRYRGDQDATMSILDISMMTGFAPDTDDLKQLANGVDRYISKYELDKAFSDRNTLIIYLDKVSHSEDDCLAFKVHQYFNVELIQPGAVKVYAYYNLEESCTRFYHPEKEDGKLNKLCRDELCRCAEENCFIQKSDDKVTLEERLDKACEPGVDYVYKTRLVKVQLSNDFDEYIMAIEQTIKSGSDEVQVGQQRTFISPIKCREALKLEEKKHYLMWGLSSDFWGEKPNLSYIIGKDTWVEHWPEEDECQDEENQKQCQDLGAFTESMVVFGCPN

Binder	EC50 (nM), cleavage of purified hC3 in vitro [nM]
H40R/I41H/F97D/F99L/C122S/Q175M/Q192G/D217V/K224Y (enzyme) VVGGTDADEGEWPWQVSLHALGQGRHCGASLISPNWLVSAAHCYIDDRGFRYSDPTQWTAFLGLHDQSQRSAPGVQERRLKRIISHPFFNDDTLDYDIALLELEKPAEYSSMVRPISLPDASHVFPAGKAIWVTGWGHTQYGGTGALILQKGEIRVINQTTCENLLPQMITPRMMCVGFLSGGVDSCGGDSGGPLSSVEADGRIFQAGVVSWGVGCAQRNYPGVYTRLPLFRDWIKENTGV	2.76
I41S/F99L/C122S/G151N/Q175M/Q192G/D217V (enzyme) VVGGTDADEGEWPWQVSLHALGQGHSCGASLISPNWLVSAAHCYIDDRGFRYSDPTQWTAFLGLHDQSQRSAPGVQERRLKRIISHPFFNDFTLDYDIALLELEKPAEYSSMVRPISLPDASHVFPAGKAIWVTGWGHTQYGGTNALILQKGEIRVINQTTCENLLPQMITPRMMCVGFLSGGVDSCGGDSGGPLSSVEADGRIFQAGVVSWGVGCAQRNKPGVYTRLPLFRDWIKENTGV	3.19
H40R/I41H/Y60gH/F97D/F99L/C122S/Q175M/Q192G/D217I/K224L (enzyme) VVGGTDADEGEWPWQVSLHALGQGRHCGASLISPNWLVSAAHCYIDDRGFRHSDPTQWTAFLGLHDQSQRSAPGVQERRLKRIISHPFFNDDTLDYDIALLELEKPAEYSSMVRPISLPDASHVFPAGKAIWVTGWGHTQYGGTGALILQKGEIRVINQTTCENLLPQMITPRMMCVGFLSGGVDSCGGDSGGPLSSVEADGRIFQAGVVSWGIGCAQRNLPGVYTRLPLFRDWIKENTGV	3.72
I41G/F97I/F99L/C122S/G151L/Q175M/Q192S/D217V (enzyme) VVGGTDADEGEWPWQVSLHALGQGHGCGASLISPNWLVSAAHCYIDDRGFRYSDPTQWTAFLGLHDQSQRSAPGVQERRLKRIISHPFFNDITLDYDIALLELEKPAEYSSMVRPISLPDASHVFPAGKAIWVTGWGHTQYGGTLALILQKGEIRVINQTTCENLLPQMITPRMMCVGFLSGGVDSCSGDSGGPLSSVEADGRIFQAGVVSWGVGCAQRNKPGVYTRLPLFRDWIKENTGV	2.84
Q38H/I41A/D60bV/F60eR/Y60gW/D96P/ins97aN/F97W/T98G/F99L/C122S/G151N/Q175L/Q192D (enzyme) VVGGTDADEGEWPWQVSLHALGHGHACGASLISPNWLVSAAHCYIDVRGRRWSDPTQWTAFLGLHDQSQRSAPGVQERRLKRIISHPFFNPWNGLDYDIALLELEKPAEYSSMVRPISLPDASHVFPAGKAIWVTGWGHTQYGGTNALILQKGEIRVINQTTCENLLPQLITPRMMCVGFLSGGVDSCDGDSGGPLSSVEADGRIFQAGVVSWGDGCAQRNKPGVYTRLPLFRDWIKENTGV	2.54
Q38H/I41A/F60eH/Y60gW/ins97aE/F97T/T98G/F99L/C122S/Q175L/Q192A (enzyme) VVGGTDADEGEWPWQVSLHALGHGHACGASLISPNWLVSAAHCYIDDRGHRWSDPTQWTAFLGLHDQSQRSAPGVQERRLKRIISHPFFNDTEGLDYDIALLELEKPAEYSSMVRPISLPDASHVFPAGKAIWVTGWGHTQYGGTGALILQKGEIRVINQTTCENLLPQLITPRMMCVGFLSGGVDSCAGDSGGPLSSVEADGRIFQAGVVSWGDGCAQRNKPGVYTRLPLFRDWIKENTGV	3.09
Q38H/I41S/D60bT/F60eS/Y60gW/D96V/F97G/ins97aV/T98P/F99L/C122S/G151H/Q175L/Q192D (enzyme) VVGGTDADEGEWPWQVSLHALGHGHSCGASLISPNWLVSAAHCYIDTRGSRWSDPTQWTAFLGLHDQSQRSAPGVQERRLKRIISHPFFNVGVPLDYDIALLELEKPAEYSSMVRPISLPDASHVFPAGKAIWVTGWGHTQYGGTHALILQKGEIRVINQTTCENLLPQLITPRMMCVGFLSGGVDSCDGDSGGPLSSVEADGRIFQAGVVSWGDGCAQRNKPGVYTRLPLFRDWIKENTGV	2.85
Q38H/I41A/D60bT/F60eK/Y60gW/F97T/ins97aE/T98G/F99L/C122S/Q175L/Q192A (enzyme) VVGGTDADEGEWPWQVSLHALGHGHACGASLISPNWLVSAAHCYIDTRGKRWSDPTQWTAFLGLHDQSQRSAPGVQERRLKRIISHPFFNDTEGLDYDIALLELEKPAEYSSMVRPISLPDASHVFPAGKAIWVTGWGHTQYGGTGALILQKGEIRVINQTTCENLLPQLITPRMMCVGFLSGGVDSCAGDSGGPLSSVEADGRIFQAGVVSWGDGCAQRNKPGVYTRLPLFRDWIKENTGV	2.71
Q38H/I41A/D60bV/F60eR/Y60gW/D96F/F97S/ins97aH/T98G/F99L/C122S/G151N/Q175L/Q192G (enzyme) VVGGTDADEGEWPWQVSLHALGHGHACGASLISPNWLVSAAHCYIDVRGRRWSDPTQWTAFLGLHDQSQRSAPGVQERRLKRIISHPFFNFSHGLDYDIALLELEKPAEYSSMVRPISLPDASHVFPAGKAIWVTGWGHTQYGGTNALILQKGEIRVINQTTCENLLPQLITPRMMCVGFLSGGVDSCGGDSGGPLSSVEADGRIFQAGVVSWGDGCAQRNKPGVYTRLPLFRDWIKENTGV	3.14
I41T/D60bW/F60eH/F97D/ins97aV/T98P/F99L/C122S/G151N/Q175L/Q192G (enzyme) VVGGTDADEGEWPWQVSLHALGQGHTCGASLISPNWLVSAAHCYIDWRGHRYSDPTQWTAFLGLHDQSQRSAPGVQERRLKRIISHPFFNDDVPLDYDIALLELEKPAEYSSMVRPISLPDASHVFPAGKAIWVTGWGHTQYGGTNALILQKGEIRVINQTTCENLLPQLITPRMMCVGFLSGGVDSCGGDSGGPLSSVEADGRIFQAGVVSWGDGCAQRNKPGVYTRLPLFRDWIKENTGV	3.1
Q38H/I41A/D60bV/F60eI/Y60gW/F97T/ins97aE/T98G/F99L/C122S/G151N/Q175L/Q192D (enzyme) VVGGTDADEGEWPWQVSLHALGHGHACGASLISPNWLVSAAHCYIDVRGIRWSDPTQWTAFLGLHDQSQRSAPGVQERRLKRIISHPFFNDTEGLDYDIALLELEKPAEYSSMVRPISLPDASHVFPAGKAIWVTGWGHTQYGGTNALILQKGEIRVINQTTCENLLPQLITPRMMCVGFLSGGVDSCDGDSGGPLSSVEADGRIFQAGVVSWGDGCAQRNKPGVYTRLPLFRDWIKENTGV	2.91
Q38H/I41S/D60bF/F60eT/ins97aV/F97D/T98P/F99L/C122S/H143Q/G151N/Q175L/Q192G (enzyme) VVGGTDADEGEWPWQVSLHALGHGHSCGASLISPNWLVSAAHCYIDFRGTRYSDPTQWTAFLGLHDQSQRSAPGVQERRLKRIISHPFFNDDVPLDYDIALLELEKPAEYSSMVRPISLPDASHVFPAGKAIWVTGWGQTQYGGTNALILQKGEIRVINQTTCENLLPQLITPRMMCVGFLSGGVDSCGGDSGGPLSSVEADGRIFQAGVVSWGDGCAQRNKPGVYTRLPLFRDWIKENTGV	3.07
Q38H/I41S/D60bT/F60eS/Y60gW/D96K/F97G/ins97aV/T98P/F99L/C122S/T150S/G151H/Q175L/Q192D/Q209L (enzyme) VVGGTDADEGEWPWQVSLHALGHGHSCGASLISPNWLVSAAHCYIDTRGSRWSDPTQWTAFLGLHDQSQRSAPGVQERRLKRIISHPFFNKGVPLDYDIALLELEKPAEYSSMVRPISLPDASHVFPAGKAIWVTGWGHTQYGGSHALILQKGEIRVINQTTCENLLPQLITPRMMCVGFLSGGVDSCDGDSGGPLSSVEADGRIFLAGVVSWGDGCAQRNKPGVYTRLPLFRDWIKENTGV	2.88
Q38H/I41S/D60bT/F60eS/Y60gW/D96F/F97Y/ins97aD/T98G/F99L/C122S/G151H/Q175L/Q192D (enzyme) VVGGTDADEGEWPWQVSLHALGHGHSCGASLISPNWLVSAAHCYIDTRGSRWSDPTQWTAFLGLHDQSQRSAPGVQERRLKRIISHPFFNFYDGLDYDIALLELEKPAEYSSMVRPISLPDASHVFPAGKAIWVTGWGHTQYGGTHALILQKGEIRVINQTTCENLLPQLITPRMMCVGFLSGGVDSCDGDSGGPLSSVEADGRIFQAGVVSWGDGCAQRNKPGVYTRLPLFRDWIKENTGV	3.13
Q38H/I41S/D60bT/F60eS/Y60gW/ins97aV/T98P/F99L/C122S/G151H/Q175L/Q192E (enzyme) VVGGTDADEGEWPWQVSLHALGHGHSCGASLISPNWLVSAAHCYIDTRGSRWSDPTQWTAFLGLHDQSQRSAPGVQERRLKRIISHPFFNDFVPLDYDIALLELEKPAEYSSMVRPISLPDASHVFPAGKAIWVTGWGHTQYGGTHALILQKGEIRVINQTTCENLLPQLITPRMMCVGFLSGGVDSCEGDSGGPLSSVEADGRIFQAGVVSWGDGCAQRNKPGVYTRLPLFRDWIKENTGV	3.19
Q38H/I41A/D60bW/ins97aV/F97D/T98P/F99L/C122S/I136M/Q192G/D217N (enzyme) VVGGTDADEGEWPWQVSLHALGHGHACGASLISPNWLVSAAHCYIDWRGFRYSDPTQWTAFLGLHDQSQRSAPGVQERRLKRIISHPFFNDDVPLDYDIALLELEKPAEYSSMVRPISLPDASHVFPAGKAMWVTGWGHTQYGGTGALILQKGEIRVINQTTCENLLPQQITPRMMCVGFLSGGVDSCGGDSGGPLSSVEADGRIFQAGVVSWGNGCAQRNKPGVYTRLPLFRDWIKENTGV	3.06
Q38R/I41S/D60bY/F60eD/ins97aV/F97D/T98P/F99L/C122S/G151N/Q175M/Q192A (enzyme) VVGGTDADEGEWPWQVSLHALGRGHSCGASLISPNWLVSAAHCYIDYRGDRYSDPTQWTAFLGLHDQSQRSAPGVQERRLKRIISHPFFNDDVPLDYDIALLELEKPAEYSSMVRPISLPDASHVFPAGKAIWVTGWGHTQYGGTNALILQKGEIRVINQTTCENLLPQMITPRMMCVGFLSGGVDSCAGDSGGPLSSVEADGRIFQAGVVSWGDGCAQRNKPGVYTRLPLFRDWIKENTGV	3.22
Q38H/I41S/D60bT/F60eS/Y60gW/D96I/F97N/T98G/F99L/C122S/G151N/Q175L/Q192D (enzyme) VVGGTDADEGEWPWQVSLHALGHGHSCGASLISPNWLVSAAHCYIDTRGSRWSDPTQWTAFLGLHDQSQRSAPGVQERRLKRIISHPFFNINGLDYDIALLELEKPAEYSSMVRPISLPDASHVFPAGKAIWVTGWGHTQYGGTNALILQKGEIRVINQTTCENLLPQLITPRMMCVGFLSGGVDSCDGDSGGPLSSVEADGRIFQAGVVSWGDGCAQRNKPGVYTRLPLFRDWIKENTGV	3.04
Q38Y/I41S/D60bT/Y60gW/D96M/F97N/T98G/F99L/C122S/G151N/Q175L/Q192D (enzyme) VVGGTDADEGEWPWQVSLHALGYGHSCGASLISPNWLVSAAHCYIDTRGFRWSDPTQWTAFLGLHDQSQRSAPGVQERRLKRIISHPFFNMNGLDYDIALLELEKPAEYSSMVRPISLPDASHVFPAGKAIWVTGWGHTQYGGTNALILQKGEIRVINQTTCENLLPQLITPRMMCVGFLSGGVDSCDGDSGGPLSSVEADGRIFQAGVVSWGDGCAQRNKPGVYTRLPLFRDWIKENTGV	3.08
Q38Y/I41S/D60bT/F60eR/Y60gW/D96M/T98G/F99L/C122S/G151N/Q175L/Q192D (enzyme) VVGGTDADEGEWPWQVSLHALGYGHSCGASLISPNWLVSAAHCYIDTRGRRWSDPTQWTAFLGLHDQSQRSAPGVQERRLKRIISHPFFNMFGLDYDIALLELEKPAEYSSMVRPISLPDASHVFPAGKAIWVTGWGHTQYGGTNALILQKGEIRVINQTTCENLLPQLITPRMMCVGFLSGGVDSCDGDSGGPLSSVEADGRIFQAGVVSWGDGCAQRNKPGVYTRLPLFRDWIKENTGV	3.27
